B1: CPEB3 Ribozyme (parent)
chain: GGGGGCCACAGCAGAAGCGUUCACGUCGCGGCCCCUGUCAGAUUCUGGUGAAUCUGCGAAUUCUGCUGU

Variants of: B1
Test: self-cleavage, relative activity (ratio to wild type); higher = more cleavage; co-transcriptional
With A42G A59U the self-cleavage was 0.735. A42G A59C showed a self-cleavage of 0.577. For A42G A59G, the self-cleavage was 0.81. Variant A42C U44C has a self-cleavage of 0.736. Variant A42C U44G has a self-cleavage of 0.816. With A42C U44A the self-cleavage was 0.83. For U43C U67A, the self-cleavage was 0.98. U43C U67C gave a self-cleavage of 0.969. In the case of U43C U67G, the self-cleavage is reported as 1.01. With A42U U46C the self-cleavage was 0.781. Work on A42G U55A yielded a self-cleavage of 0.543. With A42G U55C the self-cleavage was 0.492. Variant A42G U46A has a self-cleavage of 0.935. A42G U46G gave a self-cleavage of 0.941. A42U U43A showed a self-cleavage of 0.914. With U44A G68U the self-cleavage was 0.981. In the case of U44A G68A, the self-cleavage is reported as 0.964. U44A G68C showed a self-cleavage of 1.01. In the case of U43G C63G, the self-cleavage is reported as 0.446. Variant U43A U62G has a self-cleavage of 0.641. Variant U43A U62A has a self-cleavage of 0.587. In the case of U43G G50U, the self-cleavage is reported as 0.952. U43G G50A gave a self-cleavage of 0.938. With A42U G50U the self-cleavage was 0.937. With A42U G50C the self-cleavage was 0.809. With U43G U49G the self-cleavage was 0.922. With U43G U49A the self-cleavage was 0.963. U43G U49C showed a self-cleavage of 0.815. U43A U49C showed a self-cleavage of 0.939. U43A U49A gave a self-cleavage of 0.944. U43A U49G gave a self-cleavage of 0.955. For U43C G65C, the self-cleavage was 0.567. Variant U43C G48C has a self-cleavage of 1. With U43C G48U the self-cleavage was 0.998. For U43A C45U, the self-cleavage was 1.03. Work on U43A C45A yielded a self-cleavage of 0.859. With U43C G47C the self-cleavage was 1.01. In the case of U43C G47A, the self-cleavage is reported as 1.02. U43C U69A gave a self-cleavage of 1.01. In the case of U43G U64C, the self-cleavage is reported as 0.409. For U43G U64A, the self-cleavage was 0.506. Work on A42U G65C yielded a self-cleavage of 0.433. With A42U G65U the self-cleavage was 0.481. In the case of A42U G65A, the self-cleavage is reported as 0.661. With U44A C66U the self-cleavage was 0.926. Work on U44A C66G yielded a self-cleavage of 0.658. With U44A U69C the self-cleavage was 1.05. With U44A U69A the self-cleavage was 0.956. Variant U44A G65A has a self-cleavage of 0.755. In the case of U44A G65C, the self-cleavage is reported as 0.422. In the case of U44A G65U, the self-cleavage is reported as 0.588. Work on U43G U67A yielded a self-cleavage of 0.79. U43G U67C showed a self-cleavage of 0.915. With U43G U67G the self-cleavage was 0.867. For U44A G58C, the self-cleavage was 1.01. U43A A60G gave a self-cleavage of 0.683. Work on U43A A60U yielded a self-cleavage of 0.29. In the case of U43C C54U, the self-cleavage is reported as 0.905. Variant U43C C54G has a self-cleavage of 0.585. U43G A60C showed a self-cleavage of 0.498. Variant U43G A60U has a self-cleavage of 0.419. In the case of U43G A60G, the self-cleavage is reported as 0.556. Work on U44A A59G yielded a self-cleavage of 0.924. Work on U44A A59U yielded a self-cleavage of 0.725. For U44A A59C, the self-cleavage was 0.638. Work on A42U U61A yielded a self-cleavage of 0.744. In the case of A42U U61G, the self-cleavage is reported as 0.448. Work on U43A G47U yielded a self-cleavage of 0.987. Variant U43A G47A has a self-cleavage of 0.972. For U43A G47C, the self-cleavage was 0.954. Variant A42U C66A has a self-cleavage of 0.461. A42U C66U showed a self-cleavage of 0.876. With A42G A60G the self-cleavage was 0.85. In the case of U44A G50U, the self-cleavage is reported as 0.984. U44A G50C showed a self-cleavage of 1. U43G U62G gave a self-cleavage of 0.468. Work on A42U C63U yielded a self-cleavage of 0.876. In the case of U44A U62C, the self-cleavage is reported as 0.774. U44A U62G showed a self-cleavage of 0.685. U43G G58U showed a self-cleavage of 0.946. Work on U43G G58C yielded a self-cleavage of 0.959. In the case of U43G U53A, the self-cleavage is reported as 0.8. With U43G U53G the self-cleavage was 0.854. For U43C A51C, the self-cleavage was 0.968. In the case of U43A C57A, the self-cleavage is reported as 0.271. Variant U43A C57U has a self-cleavage of 0.41. With U43A U64A the self-cleavage was 0.591. Variant U43A U64C has a self-cleavage of 0.649. In the case of A42U U53G, the self-cleavage is reported as 1. A42U U53A showed a self-cleavage of 1.02. For U43C U62C, the self-cleavage was 0.86. Variant U43C U62A has a self-cleavage of 0.769. U44A U64G showed a self-cleavage of 0.8. With U44A U64A the self-cleavage was 0.843. In the case of A42U G68A, the self-cleavage is reported as 0.956. In the case of U43A C54G, the self-cleavage is reported as 0.418. With U43A C54A the self-cleavage was 0.599. Work on U44A G48A yielded a self-cleavage of 0.953. Variant U43A U55A has a self-cleavage of 0.257. In the case of U43A U69A, the self-cleavage is reported as 0.974. U43A U69G gave a self-cleavage of 1.01. A42G U69G gave a self-cleavage of 1.03. A42G U69C showed a self-cleavage of 1.04. Work on U43C G58U yielded a self-cleavage of 0.975. Variant U43C G58A has a self-cleavage of 0.943. In the case of U43C U46G, the self-cleavage is reported as 0.97. For U43C U46A, the self-cleavage was 0.985. U43C U46C showed a self-cleavage of 0.939. Work on A42C U46G yielded a self-cleavage of 0.929. With A42U C54G the self-cleavage was 0.56. In the case of A42U C54A, the self-cleavage is reported as 0.834. In the case of U43C A60G, the self-cleavage is reported as 0.798. Work on U43C A60U yielded a self-cleavage of 0.415. With U43C A60C the self-cleavage was 0.227. Variant A42C U67C has a self-cleavage of 0.97. With A42C U67A the self-cleavage was 0.964. In the case of A42G A51U, the self-cleavage is reported as 0.799. Work on A42G A51C yielded a self-cleavage of 0.672. A42U U44A gave a self-cleavage of 0.898. U43C G56A showed a self-cleavage of 0.861. For U43C G56C, the self-cleavage was 0.494. In the case of U43C U53A, the self-cleavage is reported as 0.92. In the case of U43G C57A, the self-cleavage is reported as 0.293. Work on U43G C66U yielded a self-cleavage of 0.794. For U43G C66A, the self-cleavage was 0.319. For U43G G47C, the self-cleavage was 0.936. U43A gave a self-cleavage of 0.953. With U43C the self-cleavage was 0.981. In the case of U43G, the self-cleavage is reported as 0.929. In the case of U44A C54A, the self-cleavage is reported as 0.588. Variant U44A C54G has a self-cleavage of 0.461. U43A A52U showed a self-cleavage of 0.926. U43C G50A gave a self-cleavage of 0.956. Work on U43A G48A yielded a self-cleavage of 1.04. U43A G48U showed a self-cleavage of 0.983. U43C A59C gave a self-cleavage of 0.652. U43C A59G gave a self-cleavage of 1.02. Variant U43C A59U has a self-cleavage of 0.68. In the case of U43C C66G, the self-cleavage is reported as 0.806. With U43C C66U the self-cleavage was 0.89. Work on U43A G58U yielded a self-cleavage of 0.946. U43A G58A showed a self-cleavage of 0.929. U43G G56C gave a self-cleavage of 0.329. U43G G56A showed a self-cleavage of 0.481. With U44A G47C the self-cleavage was 0.93. With U43G U69G the self-cleavage was 0.97. For A42G C54U, the self-cleavage was 0.799. A42U U49C gave a self-cleavage of 0.915. A42U U49G showed a self-cleavage of 0.957. With U43A G65C the self-cleavage was 0.349. U43A G65U showed a self-cleavage of 0.392. For U43A G65A, the self-cleavage was 0.49. With U44A C45G the self-cleavage was 0.983. Work on U44A C45U yielded a self-cleavage of 0.965. Variant U43C G68U has a self-cleavage of 1. In the case of A42G A52U, the self-cleavage is reported as 0.718. Variant A42G A52C has a self-cleavage of 0.854. U44A U61A showed a self-cleavage of 0.843. For U44A U61C, the self-cleavage was 0.662. A42G G47U showed a self-cleavage of 0.988. In the case of A42G G47A, the self-cleavage is reported as 0.955. With U43C U64A the self-cleavage was 0.713. Variant U43C U64G has a self-cleavage of 0.825. U43C U64C showed a self-cleavage of 0.671. For A42G U67C, the self-cleavage was 0.957. A42G U67G showed a self-cleavage of 0.897. In the case of A42G U67A, the self-cleavage is reported as 0.86.
